From patent US8846340B2, “Carbohydrate-binding modules of a new family” (Novozymes A/S, priority 2003, dated 2014)

How the values were obtained:
[1] = Binding of CBMX to PASC (A280 of supernatant); conditions: 4 hours, room temperature; for A280: Absorbance at 280 nm of 200 μl supernatant, absorbance of buffer subtracted: 20 mM Tris pH 7.5
Protocol: A similar binding study was performed with PASO (Phosphoric Acid Swollen Cellulose: To 5 g Avicel® moistened with water 150 ml ice-cold 85 ortho-phosphoric acid is added. After 1 hour stirring on ice bath, 500 ml cold acetone is added. The suspension is filtered and washed, first with acetone and then with water). 50 μl purified CBMX was mixed with 500 μl 20 mM Tris, pH 7.5 containing varying amount of PASO (0-10 mg/ml) in an Eppendorf tube. Samples were incubated 4 hours at room temperature with agitation. After centrifugation, 200 μl supernatant was transferred to the well of a microtiter plate and absorbance read at 280 nm.

[2] = Binding of CBMX to Avicel (A280 of supernatant); conditions: for A280: Absorbance at 280 nm of 200 μl supernatant, absorbance of buffer and Avicel subtracted: 4 hours, room temperature, 20 mM Tris pH 7.5
Protocol: The carbohydrate-binding domain with affinity for Avicel® and purified as described in Example 2 (CBMX) was studied further. 50 μl purified CBMX was mixed with 500 μl 20 mM Tris, pH 7.5 containing varying amount of Avicel® (0-100 mg/ml) in an Eppendorf tube. After 4 hours incubation at room temperature with agitation, the samples were centrifuged. 200 μl supernatant was transferred to the well of a microtiter plate (Costar, UV plate) and absorbance read at 280 nm on a microtiter plate reader (SpectraMax® Plus, Molecular Devices).

[3] = Competition binding assay with CBMX, Avicel and soluble carbohydrate; design: species or system tamarind; conditions: xyloglucan
Protocol: (§1) Affinity of CBMX for a number of soluble carbohydrates was tested in a competition assay by mixing 100 μl CBMX with both Avicel® (400 μl 50 mg/ml in 20 mM Tris, pH 7.5) and the soluble carbohydrate (dissolved in 500 μl 20 mM Tris, pH 7.5). As references, samples without CBMX or soluble carbohydrate added were used. If CBMX has affinity for the soluble carbohydrate it should be able to keep CBMX in solution which can be measured as increase in absorbance at 280 nm compared to sample without soluble carbohydrate added. After 4 hours incubation at room temperature with agitation, samples were centrifuged and absorbance at 280 nm was read using 200 μl supernatant in the well of a microtiter UV plate. Tested soluble carbohydrates were barley β-glucan (Megazyme, low viscosity), lichenan (Megazyme, Icelandic moss), CMC (carboxymethyl cellulose 7LF, Hercules, USA), Xyloglucan (Megazyme, amyloid, from tamarind seed), lupin galactan (Megazyme) and Locust bean gum (Sigma, G-0753).

[4] = Competition binding assay with CBMX and Avicel, references without soluble carbohydrate; conditions: 4 hours
Protocol: as §1

[5] = Competition binding assay with CBMX, Avicel and soluble carbohydrate; design: species or system barley; conditions: beta-glucan
Protocol: as §1

[6] = as above; design: species or system Icelandic moss; conditions: lichenan
Protocol: as §1

[7] = as above; conditions: for CBMX kept in solution by soluble carbohydrate (in words): competition with Avicel
Protocol: as §1

[8] = as above; design: species or system lupin; conditions: galactan
Protocol: as §1

B1: CBMX: Carbohydrate-binding module of Pseudoplectania nigrella GH61 enzyme (positions 34-174 of SEQ ID NO:2), expressed in Aspergillus oryzae, purified on Avicel (protein, listed as Pseudoplectania nigrella)
chain: SSGTSNDKAVASSSIAAVDPVTSSVVASVQVPNFTATDVPTFTATDIPTFTATDVPIFTKKPQQPSTLLTRTRTHASVSFVAKPSAFIPKPSASTIPSKPKTPEEVNKCLDAVNACITQAQSSIGGVVNFEPCESQRALCY
[1]; 0-10 mg/ml
  Affinity for PASC (in words): has affinity for PASO
[1]; PASC 0.0 mg/ml
  A280: Absorbance at 280 nm of 200 μl supernatant, absorbance of buffer subtracted: 0.0753
[1]; PASC 0.625 mg/ml
  A280: Absorbance at 280 nm of 200 μl supernatant, absorbance of buffer subtracted: 0.0682
[1]; PASC 1.25 mg/ml
  A280: Absorbance at 280 nm of 200 μl supernatant, absorbance of buffer subtracted: 0.0710
[1]; PASC 2.5 mg/ml
  A280: Absorbance at 280 nm of 200 μl supernatant, absorbance of buffer subtracted: 0.0618
[1]; PASC 5 mg/ml
  A280: Absorbance at 280 nm of 200 μl supernatant, absorbance of buffer subtracted: 0.0512
[1]; PASC 10 mg/ml
  A280: Absorbance at 280 nm of 200 μl supernatant, absorbance of buffer subtracted: 0.0471
[2]; Avicel 0.0 mg/ml
  A280: Absorbance at 280 nm of 200 μl supernatant, absorbance of buffer and Avicel subtracted: 0.0768
[2]; Avicel 0.391 mg/ml
  A280: Absorbance at 280 nm of 200 μl supernatant, absorbance of buffer and Avicel subtracted: 0.0777
[2]; Avicel 0.781 mg/ml
  A280: Absorbance at 280 nm of 200 μl supernatant, absorbance of buffer and Avicel subtracted: 0.0808
[2]; Avicel 1.563 mg/ml
  A280: Absorbance at 280 nm of 200 μl supernatant, absorbance of buffer and Avicel subtracted: 0.0799
[2]; Avicel 3.125 mg/ml
  A280: Absorbance at 280 nm of 200 μl supernatant, absorbance of buffer and Avicel subtracted: 0.0729
[2]; Avicel 6.25 mg/ml
  A280: Absorbance at 280 nm of 200 μl supernatant, absorbance of buffer and Avicel subtracted: 0.0637
[2]; Avicel 12.5 mg/ml
  A280: Absorbance at 280 nm of 200 μl supernatant, absorbance of buffer and Avicel subtracted: 0.0540
[2]; Avicel 25 mg/ml
  A280: Absorbance at 280 nm of 200 μl supernatant, absorbance of buffer and Avicel subtracted: 0.0326
[2]; Avicel 50 mg/ml
  A280: Absorbance at 280 nm of 200 μl supernatant, absorbance of buffer and Avicel subtracted: 0.0185
[2]; Avicel 100 mg/ml
  A280: Absorbance at 280 nm of 200 μl supernatant, absorbance of buffer and Avicel subtracted: 0.0095
[2]; highest concentrations of Avicel, 4 hours incubation
  Binding of the protein to Avicel (in words): the large majority of the protein binds
[2]; summary statement
  Affinity for Avicel (in words): have affinity for Avicel®
[3]
  Affinity of CBMX for soluble carbohydrate (in words): to some extent
[3]; competition with Avicel
  CBMX kept in solution by soluble carbohydrate (in words): about half of the CBMX in solution
[4]; None - Only Avicel (20 mg/ml) and CBMX, no soluble carbohydrate
  Difference in A280 between samples with and without CBMX added: 0.018
[4]; None - Only CBMX (no Avicel, no soluble carbohydrate)
  Difference in A280 between samples with and without CBMX added: 0.108
[5]
  Affinity of CBMX for soluble carbohydrate (in words): affinity
[5]; competition with Avicel
  CBMX kept in solution by soluble carbohydrate (in words): keep almost all CBMX in solution
[6]
  Affinity of CBMX for soluble carbohydrate (in words): no affinity for lichenan could be detected
[6]; competition with Avicel
  CBMX kept in solution by soluble carbohydrate (in words): does not result in any increase in CBMX in solution
[7]; CMC
  Affinity of CBMX for soluble carbohydrate (in words): affinity
  CBMX kept in solution by soluble carbohydrate (in words): keep almost all CBMX in solution
[7]; locust bean gum
  Affinity of CBMX for soluble carbohydrate (in words): affinity
  CBMX kept in solution by soluble carbohydrate (in words): keeps the majority in solution
[8]
  Affinity of CBMX for soluble carbohydrate (in words): to some extent
[8]; competition with Avicel
  CBMX kept in solution by soluble carbohydrate (in words): about half of the CBMX in solution
